# Assays:
# Assay in all cases: flow cytometry, transfected 293T cells
# [1] = target: CHIKV E2-6K-E1 envelope proteins (strain S27) with E2 T212A (Chikungunya virus strain S27) (UniProt Q8JUX5)
# [2] = target: CHIKV E2-6K-E1 envelope proteins (strain S27) with E2 N218A (Chikungunya virus strain S27) (UniProt Q8JUX5)
# [3] = target: CHIKV E2-6K-E1 envelope proteins (strain S27) with E2 G205A (Chikungunya virus strain S27) (UniProt Q8JUX5)
# [4] = target: CHIKV E2-6K-E1 envelope proteins (strain S27) with E2 I190A (Chikungunya virus strain S27) (UniProt Q8JUX5)
# [5] = target: CHIKV E2-6K-E1 envelope proteins (strain S27) with E2 V197A (Chikungunya virus strain S27) (UniProt Q8JUX5)
# [6] = target: CHIKV E2-6K-E1 envelope proteins (strain S27) with E2 Q184A (Chikungunya virus strain S27) (UniProt Q8JUX5)
substance,measurement,setting,value
Mxra8-Fc (mouse Mxra8 extracellular domain fused to mouse IgG2b Fc) (Fc fusion),Binding Reactivity (% WT),[1],94.6 % WT
same,Binding Reactivity (% WT),[2],56.5 % WT
same,Binding Reactivity (% WT),[3],78.9 % WT
same,Binding Reactivity (% WT),[4],9.4 % WT
same,Binding Reactivity (% WT),[5],33.9 % WT
same,Binding Reactivity (% WT),[6],130 % WT

# Reference: patent US20240124553A1
